The data set in a line: Membrane permeance of probe peptides in living cells. In kind it is cell-based. As to the method:
The disclosed tag sets preferentially label cell surfaces and are membrane impermeant in living cells, which is of particular use in labeling cell-surface receptors (i.e., TfR1 and EGFR) and more particularly of use in monitoring trafficking and endocytosis.
The disclosed methods were tested in transfected human osteosarcoma cells (U-2 OS). A pDisplay vector was used to target CoilZ-EGFP and untagged EGFP to the cell surface. This construct includes a C-terminal fusion to the transmembrane domain of the platelet derived growth factor receptor. As expected, both CoilZ-EGFP and untagged EGFP localized to the cell surface, and green fluorescence was observed within 24 h of transfection. Then the cells were blocked with 6% BSA and 10% FBS for 30 minutes at 37° C. and then contacted with an AF647-conjugated CoilY probe (CoilY-AF647), 30 min at 4° C. Cells were fixed before imaging by confocal fluorescence microscopy. The probe peptides are membrane impermeant; only cell-surface EGFP was accessible to CoilY-AF647 for labeling. Colocalization of green fluorescent CoilZ-EGFP with CoilY-AF647 was observed.
VIP probe peptides are live cell impermeant. This makes them ideal for imaging and tracking receptor internalization. […]
VIPER labeling was compared to that of standard fluorescence labeling techniques, namely a fluorescent protein fusion to mCherry and antibody labeling.

As for “CoilR: coiled-coil peptide, SEQ ID NO: 1, designed from RR12EE345L (LEIRAAFLRQRNTALRTEVAELEQEVQRLENEVSQYETRYGPL)”, the cell membrane permeance entry is “cell-membrane impermeance”.

The values are drawn from patent publication US11360100B2, “Methods and compositions useful in detecting proteins” (OREGON HEALTH & SCIENCE UNIVERSITY, priority 2016, dated 2022).
